Experimental findings from paper PMC10293810, “Multiple RNA- and DNA-binding proteins exhibit direct transfer of polynucleotides with implications for target-site search” are described below.

The target of data set [1] is T1, MS2 coat protein V75E,A81G (MS2 bacteriophage, UniProt P03612 2-130, V76E;A82G). The experiment in a line: fluorescence polarization; 25 C; apparent Kd, ligand 5 nM >= Kd so true Kd may be lower; FP with 5 nM ligand at 25 C (some FPCD at 4 C); buffer for MS2-CP (BB6): 100 mM Tris pH 7.5, 10 mM MgCl2, 80 mM KCl, 0.1 mg/mL BSA; other buffers not in material. To be noted: protein: recombinant; tags: HisMBP fusion with 3C protease site; chain copies: 2; label: fluorophore; hairpin. Background: Fluorescence polarisation rises when a labelled molecule tumbles more slowly, as on binding a larger partner.

The target of data set [2] is T2, FBF-2 RNA-binding domain (Caenorhabditis elegans, UniProt Q09312 164-575).
T2 sequence: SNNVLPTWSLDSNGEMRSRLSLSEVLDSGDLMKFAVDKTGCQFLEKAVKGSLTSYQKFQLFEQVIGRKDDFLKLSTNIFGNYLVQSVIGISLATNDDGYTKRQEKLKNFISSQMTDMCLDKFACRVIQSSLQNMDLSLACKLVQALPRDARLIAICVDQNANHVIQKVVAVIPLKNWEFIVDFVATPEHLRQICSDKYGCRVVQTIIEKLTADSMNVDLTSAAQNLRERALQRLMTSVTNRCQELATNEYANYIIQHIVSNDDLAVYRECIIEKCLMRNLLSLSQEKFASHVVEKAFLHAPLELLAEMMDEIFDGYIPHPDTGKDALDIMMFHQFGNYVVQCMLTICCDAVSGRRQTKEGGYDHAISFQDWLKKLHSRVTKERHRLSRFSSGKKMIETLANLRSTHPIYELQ
Put plainly: fluorescence polarization; 25 C; apparent Kd; FP with 5 nM ligand at 25 C (some FPCD at 4 C); buffer for MS2-CP (BB6): 100 mM Tris pH 7.5, 10 mM MgCl2, 80 mM KCl, 0.1 mg/mL BSA; other buffers not in material. To be noted: protein: recombinant; label: 5' 6-FAM.

Data set [3] has as its target hnRNP-U RNA-binding domain (human, UniProt Q00839 673-825). Described as above. To be noted: protein: recombinant; tags: N-terminal His-MBP fusion; label: fluorophore, 3' by name; G-quadruplex.
The target of data set [4] is T3, TREX1 R174A,K175A (murine, UniProt Q91XB0 1-242, R174A;K175A).
T3 sequence: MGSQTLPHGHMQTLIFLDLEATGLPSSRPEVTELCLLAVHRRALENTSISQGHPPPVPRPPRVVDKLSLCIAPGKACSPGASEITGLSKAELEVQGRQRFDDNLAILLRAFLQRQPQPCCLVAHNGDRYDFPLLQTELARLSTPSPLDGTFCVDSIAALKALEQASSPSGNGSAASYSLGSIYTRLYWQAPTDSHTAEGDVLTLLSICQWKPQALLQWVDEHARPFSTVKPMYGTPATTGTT
The data set is described as above. To be noted: protein: recombinant; tags: MBP fusion, cleaved by protease (similar to WT); chain copies: 2; label: 5' fluorophore (FP).

Data set [5] addresses T4, TREX1 catalytic core (murine, UniProt Q91XB0 1-242).
T4 sequence: T3 sequence with A174R, A175K
Described as above. The note with it: protein: recombinant; tags: MBP fusion, cleaved by protease; chain copies: 2; label: 5' fluorophore (FP).

In data set [6] the target is T1, MS2 coat protein V75E,A81G. Put plainly: competition; displaces [F]RNA2MS2; FP with 5 nM ligand at 25 C (some FPCD at 4 C); buffer for MS2-CP (BB6): 100 mM Tris pH 7.5, 10 mM MgCl2, 80 mM KCl, 0.1 mg/mL BSA; other buffers not in material. To be noted: protein: recombinant; tags: HisMBP fusion with 3C protease site; chain copies: 2; hairpin.

Substitutions are numbered along the chain they refer to.

hnRNP-U RNA-binding domain, sequence (Q00839 673-825): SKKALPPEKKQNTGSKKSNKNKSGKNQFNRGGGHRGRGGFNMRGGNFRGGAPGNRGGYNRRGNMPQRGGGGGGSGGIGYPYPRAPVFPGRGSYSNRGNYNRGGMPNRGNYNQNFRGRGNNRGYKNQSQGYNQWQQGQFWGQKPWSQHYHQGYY

B1: [F]RNA2MS2 (structured_RNA)
RNA: GGACAUGAGGAUCACCCAUGU
For B1, the Kd in data set [1] was found to be 2.9 ± 0.62 nM.

B2: [F]RNAPUF (ssRNA)
RNA: AACAUGUGCCAUA
On to B2, for which the Kd in data set [2] was determined as 50 ± 9.2 nM.

B3: r(G3A2)4[F] (structured_RNA)
RNA: GGGAAGGGAAGGGAAGGGAA
Regarding B3, the Kd in data set [3] worked out at 15 ± 4.8 nM.

B4: [F]d(N)5 (ssDNA)
DNA: GACTG
For B4, the Kd in data set [4] came to 46 ± 16 nM; in data set [5], 8.9 ± 3.8 nM.

B5: RNA1MS2 (structured_RNA)
RNA: GGGACUGAGGAUCACCCAGUCUAU
Take B5: in data set [6], the binding result is listed as “binds”.
